Assay results published in paper PMC3510020.

Biological target: Mal3 (UniProt Q10113)
Assay: Mal3-GST pull-down from yeast lysate
Conditions: reference: wild-type Klp2-GFP; sites S113,S123

binding against the reference: stronger
Substance: Klp2 (from UniProt Q9US03) Klp2-2A-GFP
